Reference: publication PMC9898751

Tests used:
[1] = target: PHF2(1–451), N-terminal half of human PHF2 with the PHD and Jumonji domains (residues 1–451) (human) (UniProt O75151); assay: ITC
[2] = target: PHF2(1–70), PHD domain of human PHF2 (residues 1–70) (human) (UniProt O75151); assay: ITC
Chain of PHF2(1–70), PHD domain of human PHF2 (residues 1–70) (human) (O75151 1-70): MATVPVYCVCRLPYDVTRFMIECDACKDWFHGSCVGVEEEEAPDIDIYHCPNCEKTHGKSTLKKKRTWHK

Chain of PHF2(1–451), N-terminal half of human PHF2 with the PHD and Jumonji domains (residues 1–451) (human) (O75151 1-451): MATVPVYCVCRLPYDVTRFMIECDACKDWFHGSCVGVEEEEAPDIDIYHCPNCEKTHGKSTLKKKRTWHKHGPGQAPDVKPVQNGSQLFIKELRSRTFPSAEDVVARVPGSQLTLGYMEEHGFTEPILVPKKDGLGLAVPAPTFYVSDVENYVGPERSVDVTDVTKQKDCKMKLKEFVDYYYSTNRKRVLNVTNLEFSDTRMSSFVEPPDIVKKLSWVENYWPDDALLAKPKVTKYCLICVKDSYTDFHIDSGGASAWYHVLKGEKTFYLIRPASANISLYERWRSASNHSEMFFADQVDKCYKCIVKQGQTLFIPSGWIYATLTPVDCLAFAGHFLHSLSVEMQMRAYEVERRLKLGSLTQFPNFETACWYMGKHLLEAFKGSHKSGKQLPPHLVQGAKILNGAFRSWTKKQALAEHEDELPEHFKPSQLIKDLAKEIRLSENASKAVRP

Substance: VRK1(1-12)K4me3 peptide (12-mer of the N-terminus of vaccinia-related kinase 1, trimethylated at lysine 4)
- Kd [1]: 42 nM
- Kd [2]: 900 nM
